What was measured:
Assay in all cases: flow cytometry on cells; biotinylated ligand at various concentrations, 30 min at 4 °C in PBS + 0.1% BSA, on Drosophila S2 cells displaying the partner (C-terminal FLAG, rat Neurexin-1 transmembrane helix); Cy5-streptavidin; gated on anti-FLAG positive cells; MFI fit to a single-site model; apparent KD
Settings in all cases: one partner purified
[1] = molecular target: T1, hRobo3 FN1-3 F594A/W602A, biotinylated (human, UniProt Q96MS0 549-870, F594A | W602A, biotin on the Avi-tag (BirA))
T1 construct: human Robo3, FN domains 1-3, P549-L870; source: High Five cells (baculovirus), purified, biotinylated with BirA (general methods)
T1 sequence (looked up): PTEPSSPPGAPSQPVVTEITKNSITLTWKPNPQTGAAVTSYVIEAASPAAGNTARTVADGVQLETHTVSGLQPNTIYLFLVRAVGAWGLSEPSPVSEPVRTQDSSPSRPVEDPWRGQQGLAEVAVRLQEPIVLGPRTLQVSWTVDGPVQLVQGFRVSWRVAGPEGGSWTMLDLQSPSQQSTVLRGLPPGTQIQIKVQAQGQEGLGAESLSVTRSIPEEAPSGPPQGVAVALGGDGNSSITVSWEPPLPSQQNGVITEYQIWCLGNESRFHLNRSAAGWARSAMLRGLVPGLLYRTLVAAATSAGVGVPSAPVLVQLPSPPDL

[2] = molecular target: T2, hRobo3 FN1-3 N600A/T601A, biotinylated (human, UniProt Q96MS0 549-870, N600A | T601A, biotin on the Avi-tag (BirA))
T2 construct: human Robo3, FN domains 1-3, P549-L870; source: High Five cells (baculovirus), purified, biotinylated with BirA (general methods)
T2 sequence (looked up): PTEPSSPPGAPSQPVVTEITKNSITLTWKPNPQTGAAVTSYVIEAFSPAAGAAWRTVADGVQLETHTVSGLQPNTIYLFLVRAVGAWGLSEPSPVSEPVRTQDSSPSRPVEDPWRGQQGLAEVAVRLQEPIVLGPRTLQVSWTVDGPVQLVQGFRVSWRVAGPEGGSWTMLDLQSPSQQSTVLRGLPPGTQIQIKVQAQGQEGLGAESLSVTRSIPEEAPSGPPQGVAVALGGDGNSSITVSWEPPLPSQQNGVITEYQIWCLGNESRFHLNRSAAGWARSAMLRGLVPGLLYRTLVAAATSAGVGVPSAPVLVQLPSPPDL

[3] = molecular target: T3, hRobo3 FN1-3 W635A, biotinylated (human, UniProt Q96MS0 549-870, W635A, biotin on the Avi-tag (BirA))
T3 construct: human Robo3, FN domains 1-3, P549-L870; source: High Five cells (baculovirus), purified, biotinylated with BirA (general methods)
T3 sequence (looked up): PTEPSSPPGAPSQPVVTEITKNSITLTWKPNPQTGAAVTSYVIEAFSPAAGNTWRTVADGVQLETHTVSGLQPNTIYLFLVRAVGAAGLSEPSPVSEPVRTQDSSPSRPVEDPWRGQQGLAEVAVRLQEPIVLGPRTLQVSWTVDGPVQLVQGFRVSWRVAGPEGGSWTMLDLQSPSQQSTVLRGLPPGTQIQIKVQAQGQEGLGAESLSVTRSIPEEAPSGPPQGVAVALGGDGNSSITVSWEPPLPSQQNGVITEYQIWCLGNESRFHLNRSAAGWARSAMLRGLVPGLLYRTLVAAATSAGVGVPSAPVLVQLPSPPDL

B1: hNELL2 EGF1-6 displayed on S2 cells (domain or fragment)
chain: not shown
notes: human NELL2, EGF domains 1-6, G397-T637; also called NELL2EGF1-6 WT (Actin 5C, C-terminal FLAG); FLAG-tagged NELL2 EGF1-6; source: Drosophila S2 cells, transiently transfected, on the cell surface; not shown: FLAG, C-terminal, kept; transmembrane helix of rat Neurexin-1, C-terminal, kept
A Kd [1] of at least 100000 nM, a Kd [2] of 2900 nM and a Kd [3] of 2900 nM were found for B1 in this work.
